Assay results published in paper doi:10.1101/2020.09.30.318972 (bioRxiv, 2020).

Target: soluble prefusion-stabilized trimeric SARS-CoV-2 spike protein (SARS-CoV-2, Wuhan-Hu-1 (MN908947.3), UniProt P0DTC2, stabilised)
Assay: cryo-EM structure

B1: LY-CoV555 Fab (Fab, V domains shown)
VH: QVQLVQSGAEVKKPGSSVKVSCKASGGTFSNYAISWVRQAPGQGLEWMGRIIPILGIANYAQKFQGRVTITADKSTSTAYMELSSLRSEDTAVYYCARGYYEARHYYYYYAMDVWGQGTAVTVSS
VL: not shown
  binding result: binds
